# Measurements as given in paper PMC9402538, “Rational design of a sensitivity-enhanced tracer for discovering efficient APC–Asef inhibitors” (Nature Communications, 2022).
# Where a chain is given by its changes, count along the chain named. Names and notes keep the numbering of the source. Primed or numbered codes have the meaning given here. [ ]: non-standard residue; d: D form. The star is where a group is joined. FITC = O=C1OC2(c3ccc(O)cc3Oc3cc(O)ccc32)c2ccc(NC(=S)*)cc21; Phe(4-tBu) = CC(C)(C)c1ccc(C[C@H](N)C(=O)O)cc1; Bpa = N[C@@H](Cc1ccc(C(=O)c2ccccc2)cc1)C(=O)O; Ala(cPent) = N[C@@H](CC1CCCC1)C(=O)O; FITC′ = fluorescein isothiocyanate; hLeu = CC(C)CC[C@H](N)C(=O)O; 2Furoyl = O=C(c1ccco1)*; Cbz = O=C(OCc1ccccc1)*; Bz = O=C(c1ccccc1)*
# T1: APC (303-739) (UniProt P25054 303-739)
# T1 construct: adenomatous polyposis coli (APC), residues 303-739; pET28a construct; also called APC WT; adenomatous polyposis coli; source: E. coli BL21 (DE3), purified (Ni-NTA)
# T1 sequence (looked up): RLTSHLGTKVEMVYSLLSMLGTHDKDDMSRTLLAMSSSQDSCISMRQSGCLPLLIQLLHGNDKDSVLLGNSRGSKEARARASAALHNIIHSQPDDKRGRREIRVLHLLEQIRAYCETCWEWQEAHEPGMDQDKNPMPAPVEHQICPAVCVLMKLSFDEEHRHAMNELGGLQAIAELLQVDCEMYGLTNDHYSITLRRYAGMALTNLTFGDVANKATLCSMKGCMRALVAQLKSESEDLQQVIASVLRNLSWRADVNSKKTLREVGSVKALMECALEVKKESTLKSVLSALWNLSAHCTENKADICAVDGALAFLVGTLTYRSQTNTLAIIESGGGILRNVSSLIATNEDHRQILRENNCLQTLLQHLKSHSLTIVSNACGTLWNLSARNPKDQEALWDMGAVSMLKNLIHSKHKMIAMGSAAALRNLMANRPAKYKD
# T2: APC (303–739) (UniProt P25054 303-739)
# T2 construct: adenomatous polyposis coli (APC), residues 303–739; The methods name this construct for FP and SPR; the ITC methods say only 'APC protein'; Plasmid was a gift (Dr. Geng Wu); pET28a; also called APC WT; adenomatous polyposis coli; source: E. coli BL21 (DE3), purified (Ni-NTA)
# T2 sequence (looked up): T1 sequence (looked up)
# B1: MAI-457 (peptide)
# chain: Bz-AGESLY[Bpa]-NH2
# SMILES: CC(C)C[C@H](NC(=O)[C@H](CO)NC(=O)[C@H](CCC(=O)O)NC(=O)CNC(=O)[C@H](C)NC(=O)c1ccccc1)C(=O)N[C@@H](Cc1ccc(O)cc1)C(=O)N[C@@H](Cc1ccc(C(=O)c2ccccc2)cc1)C(N)=O
# B2: MAI-461 (peptide)
# chain: Bz-AGES[Ala(cPent)]YE-NH2
# SMILES: C[C@H](NC(=O)c1ccccc1)C(=O)NCC(=O)N[C@@H](CCC(=O)O)C(=O)N[C@@H](CO)C(=O)N[C@@H](CC1CCCC1)C(=O)N[C@@H](Cc1ccc(O)cc1)C(=O)N[C@@H](CCC(=O)O)C(N)=O
# B3: MAI-466 (peptide)
# chain: 2Furoyl-AGESLY[Phe(4-tBu)]-NH2
# SMILES: CC(C)C[C@H](NC(=O)[C@H](CO)NC(=O)[C@H](CCC(=O)O)NC(=O)CNC(=O)[C@H](C)NC(=O)c1ccco1)C(=O)N[C@@H](Cc1ccc(O)cc1)C(=O)N[C@@H](Cc1ccc(C(C)(C)C)cc1)C(N)=O
# B4: tracer 6 (Z–AGESLYENELISDGK[FITC]–NH2) (peptide)
# peptide: Cbz-AGESLYENELISDGK(FITC′)-NH2
# notes: tracer 3 with its first two residues GG replaced by a benzyloxycarbonyl (Z) group; source: synthetic peptide, bought: Changzhou Kanglong Biotech Ltd
# B5: tracer 3 (Ac–GGAGESLYENELISDGK[FITC]–NH2) (peptide)
# peptide: Ac-GGAGESLYENELISDGK(FITC′)-NH2
# notes: designed from tracer 1 (Asef stretch) by changing residues of the hot spot GGEQLAI; source: synthetic peptide, bought: Changzhou Kanglong Biotech Ltd
# B6: tracer 5 (Ac–EGAGESLYENELISDGK[FITC]–NH2) (peptide)
# peptide: Ac-EGAGESLYENELISDGK(FITC′)-NH2
# notes: tracer 3 with its first residue replaced; source: synthetic peptide, bought: Changzhou Kanglong Biotech Ltd
# B7: tracer 4 (Ac–YGAGESLYENELISDGK[FITC]–NH2) (peptide)
# peptide: Ac-YGAGESLYENELISDGK(FITC′)-NH2
# notes: as for B6
# B8: tracer 1 (Ac–GGGGEQLAINELISDGK[FITC]–NH2) (peptide)
# peptide: Ac-GGGGEQLAINELISDGK(FITC)-NH2
# notes: stretch of Asef (Rho guanine nucleotide exchange factor 4); lysine that carries FITC; source: synthetic peptide, bought: Changzhou Kanglong Biotech Ltd
# B9: tracer 2 (Ac–GGAGEALAINELISDGK[FITC]–NH2) (peptide)
# peptide: Ac-GGAGEALAINELISDGK(FITC′)-NH2
# notes: as for B5
# B10: tracer 7 (Z–AGESLYEK[FITC]–NH2) (peptide)
# peptide: Cbz-AGESLYEK(FITC)-NH2
# notes: tracer 6 with a shortened linker; source: synthetic peptide, bought: Changzhou Kanglong Biotech Ltd
# B11: tracer 7 (peptide)
# peptide: Cbz-AGESLYEK(FITC)-NH2
# notes: designed from the Asef hot spot 181-187; the systematic name on D1:p12 gives (R) at the lysine carbon; source: synthetic peptide (general procedure B; FITC-labeled tracer peptides obtained from Changzhou Kanglong Biotech)
# B12: tracer 11 (peptide)
# peptide: Cbz-AGESLYEGGGGGGGK(FITC′)-NH2
# notes: source: synthetic peptide (general procedure B; FITC-labeled tracer peptides obtained from Changzhou Kanglong Biotech)
# B13: tracer 12 (peptide)
# peptide: Cbz-AGESLYEGGGGGK(FITC′)-NH2
# notes: as for B12
# B14: tracer 13 (peptide)
# peptide: Cbz-AGESLYEGGGK(FITC′)-NH2
# notes: as for B12
# B15: tracer 8 (peptide)
# peptide: Cbz-AGESLYENELISK(FITC′)-NH2
# notes: as for B12
# B16: tracer 10 (peptide)
# peptide: Cbz-AGESLYENK(FITC′)-NH2
# notes: as for B12
# B17: tracer 14 (peptide)
# peptide: Cbz-AGESLYEGK(FITC′)-NH2
# notes: as for B12
# B18: tracer 9 (peptide)
# peptide: Cbz-AGESLYENELK(FITC′)-NH2
# notes: as for B12
# B19: APC W593A, N641A (domain or fragment)
# chain: T1 sequence (looked up) with W291A, N339A
# Target: T1, APC (303-739)
# Assay: fluorescence polarisation; competition with tracer 7: 25 nM APC (303-739), serial dilution of peptide, 20 nM tracer 7; 50 mM HEPES pH 7.5, 300 mM NaCl, 1 mM EDTA, 1 mM DTT; room temperature
# Conditions: both partners purified
row,Binder,IC50
1,{morpholine‑4‑carbonyl}-AGESLYE-NH2 [MAI-451],270 ± 5 nM
2,B1,92 ± 3 nM
3,{oxazole‑2‑carbonyl}-AGESLYE-NH2 [MAI-455],860 ± 30 nM
4,Bz-AGESLY[dE]-NH2 [MAI-465],1000 ± 30 nM
5,{benzofuran‑2‑carbonyl}-AGESLYE-NH2 [MAI-453],260 ± 10 nM
6,Bz-AGESLYE-NH2 [MAI-467],320 ± 7 nM
7,{oxazole‑5‑carbonyl}-AGESLYE-NH2 [MAI-460],550 ± 9 nM
8,{pyrimidine‑4‑carbonyl}-AGESLYE-NH2 [MAI-464],220 ± 10 nM
9,Cbz-AGES[hLeu]YE-NH2 [MAI-426],1200 ± 60 nM
10,B2,80 ± 3 nM
11,{2‑(methylthio)pyrimidine‑4‑carbonyl}-AGESLYE-NH2 [MAI-456],990 ± 60 nM
12,{furan‑2‑carbonyl}-AGESLY[Bpa]-NH2 [MAI-454],280 ± 10 nM
13,B3,940 ± 30 nM
14,{2‑chloropyrimidine‑4‑carbonyl}-AGESLYE-NH2 [MAI-459],840 ± 30 nM

# Target: T2, APC (303–739)
# Assay: fluorescence polarisation; direct binding: tracer fixed at 20 nM, a range of concentrations of APC (303–739), read after 1.5 h; EC50 by nonlinear regression
# Conditions: both partners purified
row,Binder,EC50
1,B4,40 nM
2,B5,68 nM
3,B6,46 nM
4,B7,48 nM
5,B8,540 nM
6,B9,180 nM
7,B10,16 nM

# Target: T1, APC (303-739)
# Assay: ITC; APC protein in the cell at 10-20 μM, peptide injected at 100-200 μM; 50 mM HEPES pH 7.5, 300 mM NaCl, 1 mM EDTA; 30 °C; single-site model
# Conditions: both partners purified
row,Binder,stoichiometry N
1,B11,1.6

# Target: T2, APC (303–739)
# Assay: ITC; MicroCal ITC200, 30 °C; 50 mM HEPES pH 7.5, 300 mM NaCl, 1 mM EDTA; APC in the cell at 10–20 μM, peptide injected at 100–200 μM; single-site model
# Conditions: both partners purified
row,Binder,Kd
1,B8,580 nM
2,B10,78 nM

# Target: T1, APC (303-739)
# Assay: fluorescence polarisation; direct binding: tracer fixed at 20 nM, range of concentrations of APC (303-739), read after 1.5 h; EC50 by nonlinear regression
# Conditions: both partners purified
row,Binder,EC50
1,B12,53 nM
2,B13,51 nM
3,B14,48 nM
4,B15,41 nM
5,B16,52 nM
6,B17,50 nM
7,B18,47 nM

# Target: T3, MAI-516 (N-terminal 4-methoxy-phenyl group (R^1))
# T3 construct: peptidomimetic; the text names its residues A181, G182, E183, S184, L185 and Y186 (Asef numbering); source: synthetic peptide (Supplementary Methods)
# Assay: ITC; MicroCal ITC200, 30 °C; 50 mM HEPES pH 7.5, 300 mM NaCl, 1 mM EDTA; APC in the cell at 10–20 μM, peptide injected at 100–200 μM; single-site model
# Conditions: both partners purified
row,Binder,Kd
1,B19,860 nM

# Target: T1, APC (303-739)
# Assay: fluorescence polarisation; competition with tracer 1: APC (303-739) 1.0 μM and tracer 1 20 nM (Table 2), serial dilution of peptide
# Conditions: both partners purified
row,Binder,IC50
1,{morpholine‑4‑carbonyl}-AGESLYE-NH2 [MAI-451],390 ± 120 nM
2,B1,590 ± 200 nM
3,{oxazole‑2‑carbonyl}-AGESLYE-NH2 [MAI-455],530 ± 120 nM
4,Bz-AGESLY[dE]-NH2 [MAI-465],750 ± 150 nM
5,{benzofuran‑2‑carbonyl}-AGESLYE-NH2 [MAI-453],460 ± 140 nM
6,Bz-AGESLYE-NH2 [MAI-467],820 ± 300 nM
7,{oxazole‑5‑carbonyl}-AGESLYE-NH2 [MAI-460],620 ± 190 nM
8,{pyrimidine‑4‑carbonyl}-AGESLYE-NH2 [MAI-464],740 ± 160 nM
9,Cbz-AGES[hLeu]YE-NH2 [MAI-426],840 ± 190 nM
10,B2,630 ± 200 nM
11,{2‑(methylthio)pyrimidine‑4‑carbonyl}-AGESLYE-NH2 [MAI-456],570 ± 120 nM
12,{furan‑2‑carbonyl}-AGESLY[Bpa]-NH2 [MAI-454],480 ± 150 nM
13,B3,810 ± 200 nM
14,{2‑chloropyrimidine‑4‑carbonyl}-AGESLYE-NH2 [MAI-459],600 ± 120 nM
